This note sets out measurements from patent US20160038561A1 (SYNG PHARMACEUTICALS, published 2016).

The target in the experiment is T1, Synuclein-gamma (SNCG) (UniProt O76070 1-127).
T1 construct: Intracellular protein in MCF7-SNCG cells; also called γ-synuclein; gamma synuclein
The experiment can be described thus: co-immunoprecipitation with anti-SNCG antibody from treated MCF7-SNCG cell lysates, western blot with anti-FITC antibody.

No end group written: not given here. *: point of attachment. FITC = O=C1OC2(c3ccc(O)cc3Oc3cc(O)ccc32)c2ccc(NC(=S)*)cc21

T1 sequence (O76070 whole entry): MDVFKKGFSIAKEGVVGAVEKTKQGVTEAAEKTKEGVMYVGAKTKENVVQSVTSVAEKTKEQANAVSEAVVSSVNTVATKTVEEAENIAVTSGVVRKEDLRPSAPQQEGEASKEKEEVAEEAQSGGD

B1: FITC tagged GYGRKKRRQRRR (TAT) alone (peptide)
peptide: {FITC}-GYGRKKRRQRRR
notes: Control peptide in the co-immunoprecipitation; also called TAT CTL; control peptide
For the molecule B1, the binding result was “no binding”.
